One assay has as its target T1, FLRT2 (in supernatants) (human, UniProt O43155 36-541).
T1 sequence: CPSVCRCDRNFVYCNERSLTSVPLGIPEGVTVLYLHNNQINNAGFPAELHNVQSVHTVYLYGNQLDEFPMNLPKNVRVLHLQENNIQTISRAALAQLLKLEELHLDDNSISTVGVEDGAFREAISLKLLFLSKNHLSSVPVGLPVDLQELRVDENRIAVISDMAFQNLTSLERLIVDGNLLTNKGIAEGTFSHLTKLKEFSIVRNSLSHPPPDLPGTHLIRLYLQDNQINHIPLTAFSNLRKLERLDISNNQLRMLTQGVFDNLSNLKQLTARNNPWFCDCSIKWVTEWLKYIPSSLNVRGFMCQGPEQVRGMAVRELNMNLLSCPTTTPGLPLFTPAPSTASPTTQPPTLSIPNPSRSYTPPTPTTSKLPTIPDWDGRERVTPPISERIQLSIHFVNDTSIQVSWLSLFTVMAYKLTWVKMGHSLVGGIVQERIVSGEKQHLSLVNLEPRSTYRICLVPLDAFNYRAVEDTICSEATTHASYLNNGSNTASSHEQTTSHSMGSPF
In words: cell-based immunofluorescence validation (FIG. 17): receptor in supernatants, KCP on cells.

The next assay addresses T2, FLRT1 (in supernatants) (human, UniProt Q9NZU1 49-552).
T2 sequence: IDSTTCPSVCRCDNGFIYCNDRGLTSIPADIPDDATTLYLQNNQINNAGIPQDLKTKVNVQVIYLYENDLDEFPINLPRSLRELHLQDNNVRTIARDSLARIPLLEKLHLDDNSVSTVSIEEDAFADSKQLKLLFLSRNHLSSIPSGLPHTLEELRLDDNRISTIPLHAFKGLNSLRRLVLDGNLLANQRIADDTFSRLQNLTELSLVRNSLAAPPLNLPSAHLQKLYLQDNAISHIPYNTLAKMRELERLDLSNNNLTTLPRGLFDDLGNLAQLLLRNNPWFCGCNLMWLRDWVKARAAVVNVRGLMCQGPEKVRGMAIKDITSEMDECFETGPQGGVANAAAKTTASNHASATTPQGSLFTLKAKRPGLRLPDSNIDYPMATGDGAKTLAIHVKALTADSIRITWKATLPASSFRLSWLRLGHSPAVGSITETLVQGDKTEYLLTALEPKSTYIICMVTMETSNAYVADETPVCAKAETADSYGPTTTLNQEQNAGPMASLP
Described as above.

Here are results for 1 molecule from patent US20240011017A1 (Genentech, published 2024).

B1: HHV8 protein KCP expressed on cells (gD-GPI construct or full-length protein) (other)
chain: QDNEKCSQKTLIGYRLKMSRDGDIAVGETVELRCRSGYTTYARNITATCLQGGTWSEPTATCNKKSCPNPGEIQNGKVIFHGGQDALKYGANISYVCNEGYFLVGREYVRYCMIGASGQMAWSSSPPFCEKEKCHRPKIENGDFKPDKDYYEYNDAVHFECNEGYTLVGPHSIACAVNNTWTSNMPTCELAGCKFPSVTHGYPIQGFSLTYKHKQSVTFACNDGFVLRGSPTITCNVTEWDPPLPKCVLEDIDDPNNSNPGRLHPTPNEKPNGNVFQRSNYTEPPTKPEDTHTAATCDTNCEQPPKILPTSEGFNETTTSNTITKQLEDEKTTSQPNTHITSALTSMKAKGNFTNKTNNSTDLHIASTPTSQDDATPSIPSVQTPNYNTNAPTRTLTSLHIEEGPSNSTTSEKATASTLSHNSHKNDTGGIYTTLNKTTQLPSTNKPTNSQAKSSTKPRVETHNKTTSNPAISLTDSADVPQRPREPTLPPIFRPPASKNRYL
notes: also called HHV8 KCP
With B1, the binding result with FLRT2 (in supernatants) and with FLRT1 (in supernatants) was “binds” throughout.
